Assay results taken from PMC7948974, “Heme oxygenase-1 affects cytochrome P450 function through the formation of heteromeric complexes: Interactions between CYP1A2 and heme oxygenase-1” (The Journal of Biological Chemistry, 2020).

Molecular target: T1, GFP-HO-1 (heme oxygenase 1 with an N-terminal GFP2 tag) (human, UniProt P09601 1-288)
T1 sequence (looked up): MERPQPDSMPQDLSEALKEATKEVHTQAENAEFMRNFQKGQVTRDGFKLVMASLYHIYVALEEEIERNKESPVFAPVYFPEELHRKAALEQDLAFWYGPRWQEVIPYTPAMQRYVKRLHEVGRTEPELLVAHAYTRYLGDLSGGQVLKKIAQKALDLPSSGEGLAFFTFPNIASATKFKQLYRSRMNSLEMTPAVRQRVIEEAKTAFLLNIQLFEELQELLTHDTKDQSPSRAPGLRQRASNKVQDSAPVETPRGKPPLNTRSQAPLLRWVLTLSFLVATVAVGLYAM
Assay: cell-based or functional assay

B1: POR-Rluc (NADPH-cytochrome P450 reductase with a C-terminal Rluc tag) (enzyme, human, UniProt P16435 1-677, looked up)
chain: MGDSHVDTSSTVSEAVAEEVSLFSMTDMILFSLIVGLLTYWFLFRKKKEEVPEFTKIQTLTSSVRESSFVEKMKKTGRNIIVFYGSQTGTAEEFANRLSKDAHRYGMRGMSADPEEYDLADLSSLPEIDNALVVFCMATYGEGDPTDNAQDFYDWLQETDVDLSGVKFAVFGLGNKTYEHFNAMGKYVDKRLEQLGAQRIFELGLGDDDGNLEEDFITWREQFWPAVCEHFGVEATGEESSIRQYELVVHTDIDAAKVYMGEMGRLKSYENQKPPFDAKNPFLAAVTTNRKLNQGTERHLMHLELDISDSKIRYESGDHVAVYPANDSALVNQLGKILGADLDVVMSLNNLDEESNKKHPFPCPTSYRTALTYYLDITNPPRTNVLYELAQYASEPSEQELLRKMASSSGEGKELYLSWVVEARRHILAILQDCPSLRPPIDHLCELLPRLQARYYSIASSSKVHPNSVHICAVVVEYETKAGRINKGVATNWLRAKEPAGENGGRALVPMFVRKSQFRLPFKATTPVIMVGPGTGVAPFIGFIQERAWLRQQGKEVGETLLYYGCRRSDEDYLYREELAQFHRDGALTQLNVAFSREQSHKVYVQHLLKQDREHLWKLIEGGAHIYVCGDARNMARDVQNTFYDIVAELGAMEHAQAVDYIKKLMTKGRYSLDVWS
  apparent Km^POR•HO-1 from HO-1-mediated heme degradation against POR concentration 0.025-0.5 μM; purified recombinant HO-1 (0.1 μM) and POR in DLPC, in the presence of 0.1 μM CYP1A2: 0.024 µM
